The record followed here is article PMC4761994, “Unraveling and engineering the production of 23,24-bisnorcholenic steroids in sterol metabolism” (Scientific Reports, 2016).

The target in data set [1] is T1, Hsd4AMN (Mycolicibacterium neoaurum, UniProt A0A0H3W613).
T1 construct: gene hsd4A
Nature of the data set: NADH oxidation at […] nm, Michaelis-Menten fit. It counts as biochemical. Conditions: NADH 125 μM; 125 mM Tris-HCl pH 8.0; 30 °C.

Data set [2] deals with CC(O)CC(=O)SCCNC(=O)CCNC(=O)[C@H](O)C(C)(C)COP(=O)(O)OP(=O)(O)OC[C@H]1O[C@@H](n2cnc3c(N)ncnc32)[C@H](O)[C@@H]1OP(=O)(O)O. Nature of the data set: purified protein. The format is biochemical, Mycolicibacterium neoaurum. Conditions: NAD+ 125 μM, 125 mM glycine-NaOH pH 9.0, 30 °C, DL mixture of substrate, pH 9.0.
Data set [3] deals with C[C@]12CC[C@H]3[C@@H](CCC4=CC(=O)CC[C@@]43C)[C@@H]1CC[C@@H]2O. Briefly: purified protein. Conditions: NAD+ 100 μM, 100 mM Tris-HCl pH 7.8, 30 °C, pH 7.8. It counts as biochemical, Mycolicibacterium neoaurum.
The subject of data set [4] is C[C@]12CC[C@H]3[C@@H](CCC4=CC(=O)C=C[C@@]43C)[C@@H]1CC[C@@H]2O. Briefly: purified protein. It counts as biochemical, Mycolicibacterium neoaurum. The settings on record: NAD+ 100 μM, 100 mM Tris-HCl pH 7.8, 30 °C, pH 7.8.

As a reminder, the Km is the substrate concentration at which the rate is half of its maximum. For orientation: Vmax means the rate approached at saturating substrate.

Consider `CC(=O)CC(=O)SCCNC(=O)CCNC(=O)[C@H](O)C(C)(C)COP(=O)(O)OP(=O)(O)OC[C@H]1O[C@@H](n2cnc3c(N)ncnc32)[C@H](O)[C@@H]1OP(=O)(O)O` [acetoacetyl-CoA], for which, in data set [1], the Km amounted to 101 ± 27 µM.

As to “Hsd4AMN (Mycolicibacterium neoaurum ATCC 25795)”, the Michaelis-Menten constant (Km) amounted to 124 ± 39 µM in data set [2], 23 ± 7 µM in data set [3] and 19 ± 4 µM in data set [4]. The Vmax was 0.113 µmol/min/mg in data set [2], 0.169 µmol/min/mg in data set [3] and 0.217 µmol/min/mg in data set [4].
